From article PMC7921410, “Structure of mammalian Mediator complex reveals Tail module architecture and interaction with a conserved core” (Nature Communications, 2021)
Blank lines part the entries; values can stand above or below the binder they belong to.

Assays:
Test in all cases: cryo-EM structure; endogenous mouse Mediator immunopurified from CH12 nuclear extract through 3×FLAG-MED19 or 3×FLAG-MED25; eluted in 50 mM HEPES pH 7.9, 100 mM KCl, 5% glycerol, 1 mM EDTA, 0.005% NP-40; map at 4.0 Å overall, focused refinement of the MED1 and knob/hook ends (6-10 Å)
Settings in all cases: both partners purified
MED17 = biological target: T1, MED17 (mouse (Mus musculus; endogenous in CH12), UniProt Q8VCD5 1-649)
T1 construct: MED17, Mus musculus, endogenous Head module scaffold subunit of Mediator; source: endogenous, CH12 mouse B lymphoma nuclear extract; immunopurified as part of Mediator (FLAG M2 agarose, FLAG peptide elution)
T1 sequence (looked up): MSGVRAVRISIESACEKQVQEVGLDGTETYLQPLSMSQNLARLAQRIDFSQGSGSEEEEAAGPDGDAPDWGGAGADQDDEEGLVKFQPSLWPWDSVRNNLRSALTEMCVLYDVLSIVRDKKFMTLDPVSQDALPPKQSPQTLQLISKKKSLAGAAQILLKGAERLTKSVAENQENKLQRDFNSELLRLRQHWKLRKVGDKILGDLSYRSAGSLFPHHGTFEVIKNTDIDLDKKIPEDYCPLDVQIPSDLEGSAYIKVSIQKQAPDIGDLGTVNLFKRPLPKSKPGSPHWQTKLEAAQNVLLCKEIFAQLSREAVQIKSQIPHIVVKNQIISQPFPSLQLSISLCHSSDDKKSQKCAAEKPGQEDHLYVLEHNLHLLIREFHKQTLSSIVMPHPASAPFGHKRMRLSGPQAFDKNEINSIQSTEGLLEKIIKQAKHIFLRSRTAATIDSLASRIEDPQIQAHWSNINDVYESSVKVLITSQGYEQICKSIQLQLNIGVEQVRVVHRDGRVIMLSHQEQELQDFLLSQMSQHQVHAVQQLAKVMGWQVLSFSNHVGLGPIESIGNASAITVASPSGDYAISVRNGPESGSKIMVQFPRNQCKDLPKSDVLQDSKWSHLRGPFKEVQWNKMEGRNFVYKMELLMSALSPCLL

MED27 = biological target: T2, MED27 (mouse (Mus musculus; endogenous in CH12), UniProt Q9DB40 1-311)
T2 construct: MED27, Mus musculus, endogenous upper Tail subunit of Mediator; source: endogenous, CH12 mouse B lymphoma nuclear extract; immunopurified as part of Mediator (FLAG M2 agarose, FLAG peptide elution)
T2 sequence (looked up): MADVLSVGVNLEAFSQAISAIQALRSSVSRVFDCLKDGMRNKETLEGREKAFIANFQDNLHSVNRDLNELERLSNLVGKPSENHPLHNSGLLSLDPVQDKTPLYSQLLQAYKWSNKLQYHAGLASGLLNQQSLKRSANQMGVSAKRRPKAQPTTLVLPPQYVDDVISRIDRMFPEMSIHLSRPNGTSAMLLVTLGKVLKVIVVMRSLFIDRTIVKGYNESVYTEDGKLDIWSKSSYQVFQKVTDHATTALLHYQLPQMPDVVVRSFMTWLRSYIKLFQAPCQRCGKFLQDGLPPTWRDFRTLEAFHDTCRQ

MED23 = biological target: T3, MED23 (mouse (Mus musculus; endogenous in CH12), UniProt Q80YQ2 1-1367)
T3 construct: MED23, Mus musculus, endogenous lower Tail subunit of Mediator; Model building started from the X-ray structure of human MED23 (PDB 6H02); source: endogenous, CH12 mouse B lymphoma nuclear extract; immunopurified as part of Mediator (FLAG M2 agarose, FLAG peptide elution)
T3 sequence (looked up): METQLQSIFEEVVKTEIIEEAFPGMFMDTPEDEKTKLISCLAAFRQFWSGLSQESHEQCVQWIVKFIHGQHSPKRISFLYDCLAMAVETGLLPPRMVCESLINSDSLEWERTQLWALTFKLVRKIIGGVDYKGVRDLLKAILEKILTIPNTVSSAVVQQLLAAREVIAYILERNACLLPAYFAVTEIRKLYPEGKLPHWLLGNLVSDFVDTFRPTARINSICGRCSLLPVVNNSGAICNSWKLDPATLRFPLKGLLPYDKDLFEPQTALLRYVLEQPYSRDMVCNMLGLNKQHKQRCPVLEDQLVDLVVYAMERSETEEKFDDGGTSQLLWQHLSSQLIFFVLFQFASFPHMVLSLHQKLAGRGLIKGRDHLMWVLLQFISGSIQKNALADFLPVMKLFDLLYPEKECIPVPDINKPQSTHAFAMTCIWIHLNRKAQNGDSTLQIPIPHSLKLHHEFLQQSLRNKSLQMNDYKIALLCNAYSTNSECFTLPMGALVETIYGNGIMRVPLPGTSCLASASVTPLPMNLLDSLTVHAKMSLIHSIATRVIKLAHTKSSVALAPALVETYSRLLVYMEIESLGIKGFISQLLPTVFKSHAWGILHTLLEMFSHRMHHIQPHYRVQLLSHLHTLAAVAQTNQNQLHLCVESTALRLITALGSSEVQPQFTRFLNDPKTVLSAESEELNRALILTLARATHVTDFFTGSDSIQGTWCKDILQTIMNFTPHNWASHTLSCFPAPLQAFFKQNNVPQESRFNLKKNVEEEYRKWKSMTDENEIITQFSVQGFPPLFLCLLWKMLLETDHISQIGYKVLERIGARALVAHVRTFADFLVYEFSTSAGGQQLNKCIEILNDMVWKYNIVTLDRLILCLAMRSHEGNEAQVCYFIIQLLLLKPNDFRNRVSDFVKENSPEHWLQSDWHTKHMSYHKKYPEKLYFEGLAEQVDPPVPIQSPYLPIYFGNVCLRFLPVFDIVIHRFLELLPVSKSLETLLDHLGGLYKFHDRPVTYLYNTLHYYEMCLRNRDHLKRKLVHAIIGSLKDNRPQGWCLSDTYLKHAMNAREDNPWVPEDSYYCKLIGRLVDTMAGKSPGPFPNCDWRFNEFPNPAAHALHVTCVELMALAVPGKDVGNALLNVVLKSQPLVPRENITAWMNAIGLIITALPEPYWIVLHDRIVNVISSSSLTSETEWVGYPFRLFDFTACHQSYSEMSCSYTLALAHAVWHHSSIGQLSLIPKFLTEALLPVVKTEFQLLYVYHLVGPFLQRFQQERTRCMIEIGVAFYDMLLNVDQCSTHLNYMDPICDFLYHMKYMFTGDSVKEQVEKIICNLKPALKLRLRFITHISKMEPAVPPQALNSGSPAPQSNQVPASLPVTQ

MED24 = biological target: T4, MED24 (mouse (Mus musculus; endogenous in CH12), UniProt Q99K74 1-987)
T4 construct: MED24, Mus musculus, endogenous lower Tail subunit of Mediator; source: endogenous, CH12 mouse B lymphoma nuclear extract; immunopurified as part of Mediator (FLAG M2 agarose, FLAG peptide elution)
T4 sequence (looked up): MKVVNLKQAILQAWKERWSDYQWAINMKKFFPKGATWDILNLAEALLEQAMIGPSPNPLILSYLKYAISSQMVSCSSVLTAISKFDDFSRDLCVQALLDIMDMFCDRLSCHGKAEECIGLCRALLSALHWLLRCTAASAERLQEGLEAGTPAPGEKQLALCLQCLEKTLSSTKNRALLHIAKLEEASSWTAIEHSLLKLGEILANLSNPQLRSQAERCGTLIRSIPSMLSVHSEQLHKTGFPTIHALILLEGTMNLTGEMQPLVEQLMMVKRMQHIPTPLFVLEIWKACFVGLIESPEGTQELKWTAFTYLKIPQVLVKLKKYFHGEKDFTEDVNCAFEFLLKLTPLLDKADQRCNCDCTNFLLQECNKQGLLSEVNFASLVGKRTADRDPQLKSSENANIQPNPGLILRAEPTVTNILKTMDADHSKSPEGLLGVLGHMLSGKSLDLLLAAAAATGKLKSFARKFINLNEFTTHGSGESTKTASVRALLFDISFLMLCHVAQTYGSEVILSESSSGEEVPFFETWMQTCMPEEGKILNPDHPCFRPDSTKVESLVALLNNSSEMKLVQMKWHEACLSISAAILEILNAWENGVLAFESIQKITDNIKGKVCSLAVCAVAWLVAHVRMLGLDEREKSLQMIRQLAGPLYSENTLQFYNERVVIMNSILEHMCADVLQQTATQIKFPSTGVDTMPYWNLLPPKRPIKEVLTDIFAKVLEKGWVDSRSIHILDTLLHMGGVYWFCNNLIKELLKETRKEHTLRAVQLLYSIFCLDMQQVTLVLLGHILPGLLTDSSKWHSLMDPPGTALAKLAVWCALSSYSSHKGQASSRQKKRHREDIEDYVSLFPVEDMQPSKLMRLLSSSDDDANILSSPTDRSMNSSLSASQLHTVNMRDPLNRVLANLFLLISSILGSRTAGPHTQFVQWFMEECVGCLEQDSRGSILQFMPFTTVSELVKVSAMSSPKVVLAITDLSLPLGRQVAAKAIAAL

- binding result (MED17): binds
- binding result (MED27): binds
B1: MED20 (natural protein, mouse (Mus musculus; endogenous in CH12), UniProt Q9R0X0 1-212, looked up)
chain: MGVTCVSQMPVAEGKSLQQTVELLTKKLEMLGAEKQGTFCVDCETYHTAASTLGSQGQAGKLMYVMHNSEYPLSCFALFENGPCLIADTNFDVLMVKLKGFFQSAKASKIETRGTRYQYCDFLVKVGTVTMGPSARGISVEVEYGPCVVASDCWSLLLEFLQSFLGSHAPGAPTVFGNRHDAVYGPADTMIQYMELFNKIRKQQQVPVAGIR
notes: MED20, Mus musculus, endogenous Head module subunit of Mediator; source: endogenous, CH12 mouse B lymphoma nuclear extract; immunopurified as part of Mediator (FLAG M2 agarose, FLAG peptide elution)

- binding result (MED23): binds
- binding result (MED24): binds
B2: MED16 (natural protein, mouse (Mus musculus; endogenous in CH12), UniProt Q6PGF3 1-828, looked up)
chain: MDLAYVCEWEKWAKSTYCPSLPLACAWSCRNLIAFTTDLRNDDQDLTHMIHILDTEHPWEVHSVSSGHSEAITCLEWDQSGSRLLSADADGQIKCWSMADHLANSWESSVGSQVEGDPIVALSWLHNGVKLALHVEKSGASSFGEKFSRVKFSPSLTLFGGKPMEGWIAVTVSGLVTVSLLKPSGQVLTSTESLCRLRGRVALADIAFTGGGNIVVAAADGSSASPVKFYKVCVSVVSEKCRIDTEILPSLFMRCTTDPNRKDRFPAITHLKFLARDMSEQVLLCASSQTSSLVECWSLRKEGLPVNNIFQQISPVVGDKQPMILKWRILSATNDLDRVSAVALPKLPISLTNTDLKVASDTQFYPGLGLALAFQDGSVHMVHRLSLQTMAVFYSSAPRSLDEPALKRPRTTCPAVHFKAMQLSWTSLALVGIDNHGKLSMLRISPSLGHPLEPKLALQHLLFLLEYCMVTGYDWWDILLHVQPGMVQSLVERLHEEYTRQKPALQQVLSTRILAMKASLCKLSPCTVARVCDYHTKLFLMAITSTLKSLLRPHFLNTPDKSPGDRLAEICAKITDVDIDKVMINLKTEEFVLDMNTLQALQQLLQWVGDFVLYLLVSLPNQGSPLRPGHSFLRDGTSLGMLRELMVVIRIWGLLKPSCLPVYTATSDTQDSMSLLFRLLTKLWICCRDEGAASEPDEGLVDECCLLPSQLLVPNLDWLPASDGLVSRLQPKQPLRLRFGRAPTLPSSTSTLQLDGLTRAPGQPKIDHLRRLHLGAYPTEECKACTRCGCVTMLKSPNKTTAVTQWEQRWIKNCLCGGLWRRVPLSCS
notes: MED16, Mus musculus, endogenous lower Tail subunit of Mediator; source: endogenous, CH12 mouse B lymphoma nuclear extract; immunopurified as part of Mediator (FLAG M2 agarose, FLAG peptide elution)

- binding result (MED17): binds
B3: MED22 (natural protein, mouse (Mus musculus; endogenous in CH12), UniProt Q62276 1-200, looked up)
chain: MAQQRALPQSKETLLQSYNKRLKDDIKSIMDNFTEIIKTAKIEDETQVSRATQGEQDNYEMHVRAANIVRAGESLMKLVSDLKQFLILNDFPSVNEAIDQRNQQLRALQEECDRKLITLRDEVSIDLYELEEEYYSSSSSLCEANDLPLCEAYWRLDLDADSADGLSAPLLASPETGAGPLQSAAPVHSHGGGPGPTEHT
notes: MED22, Mus musculus, endogenous Head module subunit of Mediator; source: endogenous, CH12 mouse B lymphoma nuclear extract; immunopurified as part of Mediator (FLAG M2 agarose, FLAG peptide elution)
